Broadly, the stoichiometry N is a count of units in the complex or per binding partner.

Consider four molecules from paper PMC10570711, “Tetramerization of upstream stimulating factor USF2 requires the elongated bent leucine zipper of the bHLH-LZ domain” (The Journal of Biological Chemistry, 2023).

The target in one series is T1, MBP-USF2_WT (human, UniProt Q15853 235-346).
T1 construct: Upstream stimulating factor 2 (USF2), human, isoform 1, residues 235-346 (bHLH-LZ-Ext domain); Built in a pHis-MBP-TEV vector; a TEV site lies between the tag and USF2; also called 6×HisMBP-USF2_WT; source: E. coli Rosetta (DE3), purified (Ni-HiTrap, Superdex 75); not shown: His6, N-terminal, kept; MBP, N-terminal, kept
Briefly: fluorescence polarisation; fluorescence anisotropy; 10 nM 5IAF-labelled USF2_WT, MBP-USF2 proteins titrated 0-6 μM; 20 mM Tris 8.0, 50 mM KCl, 2 mM MgCl2, 0.5% glycerol; 4 °C overnight; apparent; dimer to monomers. As to conditions: both partners purified. For orientation: In fluorescence polarisation assays a small probe gives low polarisation when free and higher when bound to something large.

The next series concerns the target T2, MBP-USF2 R248A (Homo sapiens, UniProt Q15853 235-346, R248A).
T2 sequence: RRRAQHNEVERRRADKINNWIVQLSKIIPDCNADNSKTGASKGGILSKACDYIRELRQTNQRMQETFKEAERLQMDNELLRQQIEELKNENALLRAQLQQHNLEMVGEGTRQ
The series can be described thus: fluorescence anisotropy; FA: 20 nM FAM-DNA, 20 mM Tris pH 8.0, 50 mM KCl, 2 mM MgCl2, 0.5% glycerol, 4 C, 3 h; EMSA: 100 nM Cy3-DNA, 10 mM Tris pH 8.0, 50 mM KCl, 1 mM DTT, 2 mM MgCl2. As to conditions: protein: recombinant; tags: 6xHis-MBP N-terminal; chain copies: 2; label: 5'-FAM on strand 1; blunt as printed if S3 is read 3'-5' (printed with 5'-3' labels).

The next series addresses T3, MBP-USF2 E244A (Homo sapiens, UniProt Q15853 235-346, E244A).
T3 sequence: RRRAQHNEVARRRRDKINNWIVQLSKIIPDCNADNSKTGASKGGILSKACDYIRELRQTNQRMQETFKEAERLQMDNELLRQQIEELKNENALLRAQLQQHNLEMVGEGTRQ
Described as above. The following applies: protein: recombinant; tags: 6xHis-MBP N-terminal; chain copies: 2; label: 5'-FAM on strand 1; blunt as printed if S3 is read 3'-5' (printed with 5'-3' labels).

The target in another series is T4, MBP-USF2 R247A (Homo sapiens, UniProt Q15853 235-346, R247A).
T4 sequence: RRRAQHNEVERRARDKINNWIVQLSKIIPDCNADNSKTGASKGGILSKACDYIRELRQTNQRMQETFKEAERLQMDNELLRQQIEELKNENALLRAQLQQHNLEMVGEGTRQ
Described as above. As to conditions: protein: recombinant; tags: 6xHis-MBP N-terminal; chain copies: 2; label: 5'-FAM on strand 1; blunt as printed if S3 is read 3'-5' (printed with 5'-3' labels).

Another series addresses T5, MBP-USF2 E244K (Homo sapiens, UniProt Q15853 235-346, E244K).
T5 sequence: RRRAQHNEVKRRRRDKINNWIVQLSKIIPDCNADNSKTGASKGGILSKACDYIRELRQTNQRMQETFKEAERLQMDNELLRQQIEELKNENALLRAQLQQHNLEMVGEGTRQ
The series is described as above. The following applies: protein: recombinant; tags: 6xHis-MBP N-terminal; chain copies: 2; label: 5'-FAM on strand 1; blunt as printed if S3 is read 3'-5' (printed with 5'-3' labels).

Another series deals with MBP-USF2 H240A (Homo sapiens, UniProt Q15853 235-346, H240A). The series is described as above. The following applies: protein: recombinant; tags: 6xHis-MBP N-terminal; chain copies: 2; label: 5'-FAM on strand 1; blunt as printed if S3 is read 3'-5' (printed with 5'-3' labels).
The target of another series is MBP-USF2_ΔLZ-Ext (Homo sapiens, UniProt Q15853 235-292). The description is as above. As to conditions: protein: recombinant; tags: 6xHis-MBP N-terminal; chain copies: 2; label: 5'-FAM on strand 1; blunt as printed if S3 is read 3'-5' (printed with 5'-3' labels).
The next series addresses USF2_Q334K (Homo sapiens, UniProt Q15853 235-346, Q334K). The series can be described thus: fluorescence anisotropy; similar to USF2_WT; FA: 20 nM FAM-DNA, 20 mM Tris pH 8.0, 50 mM KCl, 2 mM MgCl2, 0.5% glycerol, 4 C, 3 h; EMSA: 100 nM Cy3-DNA, 10 mM Tris pH 8.0, 50 mM KCl, 1 mM DTT, 2 mM MgCl2. The following applies: protein: recombinant; chain copies: 2; label: 5'-FAM on strand 1; blunt as printed if S3 is read 3'-5' (printed with 5'-3' labels).

Series [1] concerns the molecule itself. Briefly: dynamic light scattering; USF2_bHLH-LZ-ext-DNA complexes, 400 μM sample; 100 mM KCl, 10 mM Hepes pH 7.5.
Series [2] deals with the molecule itself. The series can be described thus: SEC-MALS; 700 μM protein mixed with 350 μM E-box DNA, overnight at 4 °C; Superdex 75 Increase; 20 mM Hepes pH 7.5, 100 mM KCl, 10 mM DTT; 0.5 ml/min; the constant is of tetramer to dimers.
Series [3] deals with the molecule itself. The series can be described thus: crystal structure; USF2 235-346 cocrystallised with 18 bp double-stranded E-box DNA; sitting drop, 18 °C, 0.1 M Tris pH 7.0, 20% PEG4000; 3.5 Å; four protein chains in the asymmetric unit.

USF2_Q334K, sequence (Q15853 235-346 Q334K): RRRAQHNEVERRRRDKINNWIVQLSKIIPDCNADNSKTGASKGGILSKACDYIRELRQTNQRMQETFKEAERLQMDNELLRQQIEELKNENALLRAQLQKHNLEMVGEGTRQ
MBP-USF2 H240A, sequence (Q15853 235-346 H240A): as the sequence (Q15853 235-346 Q334K) above, with H6A, K100Q counted along it

B1: 5IAF-labelled USF2_WT (5IAFUSF2_WT; labelled CGG-USF2_WT) (domain or fragment, human)
chain: CGGRRRAQHNEVERRRRDKINNWIVQLSKIIPDCNADNSKTGASKGGILSKACDYIRELRQTNQRMQETFKEAERLQMDNELLRQQIEELKNENALLRAQLQQHNLEMVGEGTRQ
modifications: 5-iodoacetamido-fluorescein (5-IAF) on the sulfhydryl cysteine end of CGG-USF2_WT
notes: CGG added before USF2 for labelling with 5-IAF (construct MBP-CGG-USF2_WT); Upstream stimulating factor 2 (USF2), human, isoform 1, residues 235-346 (bHLH-LZ-Ext domain); Made from MBP-CGG-USF2_WT by TEV cleavage of the His-MBP tag; also called 5IAF labeled USF2_WT; source: E. coli Rosetta (DE3), purified (Ni-HiTrap, TEV cleavage, HiTrap SP, S75), labelled with 5-IAF; not shown: His6, N-terminal, …
For the molecule B1, the Kd with MBP-USF2_WT is 100 ± 19 nM.

B2: FAM E-box DNA (dsDNA)
DNA 1: GACGGGCACGTGACGCGC
DNA 2: GCGCGTCACGTGCCCGTC
B2: the Kd with MBP-USF2 R248A is 460 ± 79 nM; with MBP-USF2 E244A, 72 ± 23 nM; with MBP-USF2 R247A, 250 ± 67 nM; in the series with MBP-USF2 E244K it was 290 ± 98 nM; with MBP-USF2 H240A, 210 ± 43 nM. In addition, the binding signal with MBP-USF2_ΔLZ-Ext was above 20 fold decrease vs USF2_WT. Also, the binding result with USF2_Q334K is reported as “binds”.

B3: USF2_bHLH-LZ-Ext (human USF2 isoform 1, residues 235-346) (domain or fragment, UniProt Q15853 235-346, looked up)
chain: RRRAQHNEVERRRRDKINNWIVQLSKIIPDCNADNSKTGASKGGILSKACDYIRELRQTNQRMQETFKEAERLQMDNELLRQQIEELKNENALLRAQLQQHNLEMVGEGTRQ
notes: Upstream stimulating factor 2 (USF2), human, isoform 1, residues 235-346 (basic region to the C terminus; bHLH-LZ-Ext); In the crystal, SEC-MALS and DLS experiments the protein was in complex with 18 bp E-box DNA; His-MBP tag removed with TEV protease; also called USF2_WT; bHLH-LZ-Ext domain of USF2; source: E. coli Rosetta (DE3), purified (Ni-HiTrap, Superdex 75; TEV cleavage, HiTrap SP, S75); …
Consider B3, for which the “stoichiometry N” value came to 4 in [1] and 2 in [3]. Moreover, in [2], the Kd is around 800000 nM.

B4: USF2_E312R_E320R (bHLH-LZ-Ext domain, residues 235-346, double mutant) (domain or fragment, human, UniProt Q15853 235-346, looked up)
chain: RRRAQHNEVERRRRDKINNWIVQLSKIIPDCNADNSKTGASKGGILSKACDYIRELRQTNQRMQETFKEAERLQMDNRLLRQQIERLKNENALLRAQLQQHNLEMVGEGTRQ
notes: Upstream stimulating factor 2 (USF2), human, isoform 1, residues 235-346 (bHLH-LZ-Ext domain) with E312R and E320R; Generated on the construct MBP-USF2_WT; also called E312R/E320R double mutation; tetramer interface mutant; source: E. coli Rosetta (DE3), purified (Ni-HiTrap, Superdex 75)
As for B4, the “stoichiometry N” value in series [2] was 2.
